This assay has as its target IL-13 (human IL-13, preparation not specified) (human) (UniProt P35225). The assay is described as follows: cell-based or functional assay.

IL-13 (human IL-13, preparation not specified) (human), sequence (P35225 35-146 limits assumed): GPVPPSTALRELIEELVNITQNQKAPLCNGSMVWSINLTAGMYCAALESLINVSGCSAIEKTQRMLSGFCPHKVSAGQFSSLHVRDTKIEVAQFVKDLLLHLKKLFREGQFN

B1: murine IL-13 receptor α2/FC (Fc fusion, UniProt O88786 22-334, looked up, not shown: a dimerising Fc or GST)
chain: LEIKVNPPQDFEILDPGLLGYLYLQWKPPVVIEKFKGCTLEYELKYRNVDSDSWKTIITRNLIYKDGFDLNKGIEGKIRTHLSEHCTNGSEVQSPWIEASYGISDEGSLETKIQDMKCIYYNWQYLVCSWKPGKTVYSDTNYTMFFWYEGLDHALQCADYLQHDEKNVGCKLSNLDSSDYKDFFICVNGSSKLEPIRSSYTVFQLQNIVKPLPPEFLHISVENSIDIRMKWSTPGGPIPPRCYTYEIVIREDDISWESATDKNDMKLKRRANESEDLCFFVRCKVNIYCADDGIWSEWSEEECWEGYTGPDSK
Consider B1, for which the IC50, Eotaxin-1 assay, Average amounted to 0.032 nM; the IC50, Eotaxin-1 assay, n = 1 was 0.029 nM; the IC50, Eotaxin-1 assay, n = 2 came out at 0.039 nM; the IC50, Eotaxin-1 assay, n = 3 is 0.029 nM.

B2: human IL-13 receptor α2/Fc (Fc fusion, UniProt Q14627 27-343, looked up, not shown: a dimerising Fc or GST)
chain: DTEIKVNPPQDFEIVDPGYLGYLYLQWQPPLSLDHFKECTVEYELKYRNIGSETWKTIITKNLHYKDGFDLNKGIEAKIHTLLPWQCTNGSEVQSSWAETTYWISPQGIPETKVQDMDCVYYNWQYLLCSWKPGIGVLLDTNYNLFYWYEGLDHALQCVDYIKADGQNIGCRFPYLEASDYKDFYICVNGSSENKPIRSSYFTFQLQNIVKPLPPVYLTFTRESSCEIKLKWSIPLGPIPARCFDYEIEIREDDTTLVTATVENETYTLKTTNETRQLCFVVRSKVNIYCSDDGIWSEWSDKQCWEGEDLSKKTLLR
B2 gave an IC50, Eotaxin-1 assay, Average of 0.131 nM; an IC50, Eotaxin-1 assay, n = 1 of 0.128 nM; an IC50, Eotaxin-1 assay, n = 2 of 0.147 nM; an IC50, Eotaxin-1 assay, n = 3 of 0.119 nM.

For the origin of these results see patent US20220281966A1.
